# Data reported in US20230295297A1.
# Legend:
# [1] = biological target: human TREM2 on primary cells (human) (UniProt Q9NZC2); assay: FACS, primary hDC; isotype control
# [2] = biological target: recombinant human TREM2-DAP12 fusion protein expressed on cells (human); assay: FACS, HEKhT2 cells; isotype control
# [3] = biological target: human TREM2 on primary cells (human) (UniProt Q9NZC2); assay: FACS, primary hMAC; isotype control
# [4] = biological target: mouse TREM2 on cells (mouse) (UniProt Q99NH8); assay: FACS, BWZmT2 cells; isotype control
# Sequence of mouse TREM2 on cells (mouse) (Q99NH8 19-227 limits assumed): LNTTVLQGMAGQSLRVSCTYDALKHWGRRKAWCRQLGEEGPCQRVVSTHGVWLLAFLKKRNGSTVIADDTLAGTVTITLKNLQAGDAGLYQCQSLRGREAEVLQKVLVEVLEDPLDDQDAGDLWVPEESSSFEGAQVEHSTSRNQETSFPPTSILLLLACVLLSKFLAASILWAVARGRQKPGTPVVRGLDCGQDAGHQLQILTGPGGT
# [5] = biological target: mouse TREM2 on cells (mouse) (UniProt Q99NH8); assay: FACS, WT mouse macrophages; isotype control
# [6] = biological target: TREM2 protein of the 'Percent APOE binding' column of Table 9B; assay: TREM2 binding to APOE with isotype control
# [7] = biological target: mouse TREM2 on cells (mouse) (UniProt Q99NH8); assay: FACS, WT mouse macrophages
# [8] = biological target: TREM2 protein of the 'Percent APOE binding' column of Table 9B; assay: TREM2 binding to APOE with antibody
# Sequence of human TREM2 on primary cells (human) (Q9NZC2 19-230): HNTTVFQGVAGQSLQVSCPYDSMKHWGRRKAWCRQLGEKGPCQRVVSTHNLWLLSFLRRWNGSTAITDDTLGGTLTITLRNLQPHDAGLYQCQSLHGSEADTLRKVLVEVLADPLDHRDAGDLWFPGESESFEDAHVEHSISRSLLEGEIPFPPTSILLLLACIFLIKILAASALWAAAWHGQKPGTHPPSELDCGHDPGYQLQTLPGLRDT
# Sequence of recombinant human TREM2-DAP12 fusion protein expressed on cells (human) (chain, as listed by the source limits assumed, form in doubt): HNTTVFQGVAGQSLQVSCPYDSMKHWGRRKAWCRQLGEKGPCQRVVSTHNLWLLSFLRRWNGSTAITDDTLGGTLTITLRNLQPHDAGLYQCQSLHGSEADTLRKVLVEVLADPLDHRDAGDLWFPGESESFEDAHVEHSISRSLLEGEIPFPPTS
% Positive hDC [1] [%],MFI HEKhT2 [2] [MFI],% Positive hMAC [3] [%],MFI BWZmT2 [4] [MFI],% Positive WT BMMACS [5] [%],Percent APOE binding [6] [%],% Positive WT BMMACS [7] [%],Percent APOE binding [8] [%],Substance
6.2,33,10.4,,,,,,rat IgG2a isotype control antibody
7.3,40.3,7.9,,,,,,mouse IgG2a isotype control antibody
14.9,124,63.7,,,,,,mouse IgM isotype control antibody
6.1,13,5.3,,,,,,mouse IgG2b isotype control antibody
8.7,544,19.6,,,,,,rat IgG1 isotype control antibody
4.9,16.3,2.7,278,0.574,90.8,,,mouse IgG1 isotype control antibody
,,,,,,13.1,106,commercial anti-TREM2 antibody (R&D Cat #F7E57291)
0.3,35,0.9,,,102,,,rat IgG2b isotype control antibody
